# Data published in the supplement of paper PMC10598134.
# ± gives the standard deviation.
# Assay: collision cross section of modified peptide (TIMS, N2, iRT-aligned); higher = larger / more extended gas-phase ion
# Method in brief: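 Synthetic peptide pools (~100 fmol/µL in 2% acetonitrile/0.1% formic acid, iRT standard spiked 1:40) were separated on a 120-min nanoflow C18 gradient at 60 °C. They were analysed on a timsTOF Pro/HT (dda-PASEF, nitrogen, ~2.4 mbar) and identified with MaxQuant. 1/K0 was calibrated with three reference ions and aligned run-wise to the median iRT peptide deviation. Collision cross section came from the Mason-Schamp equation, averaging 1–3 technical replicates of the most abundant feature per charge state.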
# [1] = charge state: 2, modification: Dimethyl (K)
# [2] = charge state: 3, modification: Dimethyl (K)
# [3] = charge state: 2, modification: Trimethyl (K)
# [4] = charge state: 3, modification: Trimethyl (K)
# [5] = charge state: 2, modification: Glutarylation
# [6] = charge state: 2, modification: Crotonyl
# [7] = charge state: 2, modification: Biotin
# [8] = charge state: 2, modification: Acetyl (K)
# [9] = charge state: 2, modification: Citrullination (R)
# [10] = charge state: 3, modification: Succinyl
# [11] = charge state: 2, modification: Methyl (K)
# [12] = charge state: 3, modification: Methyl (K)
# [13] = charge state: 3, modification: Acetyl (K)
# [14] = charge state: 2, modification: Malonyl
# [15] = charge state: 2, modification: hydroxyisobutyryl
# [16] = charge state: 2, modification: Succinyl
# [17] = charge state: 2, modification: Nitro (Y)
# [18] = charge state: 2, modification: Hydroxyproline
# [19] = charge state: 3, modification: Glutarylation
# [20] = charge state: 3, modification: hydroxyisobutyryl
# [21] = charge state: 3, modification: Malonyl
# [22] = charge state: 2, modification: HexNAc (ST)
# [23] = charge state: 2, modification: Propionyl
substance,measurement,setting,value
GGPGSTLSFVGKR [_GGPGSTLSFVGK(Dimethyl (K))R_],collision cross section,[1],393.41 ± 0.79 Å²
same,collision cross section,[2],425.47 ± 2 Å²
SKLLFSNTAAQK [_SK(Trimethyl (K))LLFSNTAAQK_],collision cross section,[3],395.61 ± 0.017 Å²
same,collision cross section,[4],446.07 ± 2.4 Å²
SGKFTQQDIDEAK [_SGK(Gluratylation)FTQQDIDEAK_],collision cross section,[5],415.95 ± 0.14 Å²
GSLEKGSPEDK [_GSLEK(Crotonyl)GSPEDK_],collision cross section,[6],371.77 ± 0.26 Å²
ITASLCDLKSR [_ITASLCDLK(Biotin)SR_],collision cross section,[7],401.02 Å²
LEQVEKELLR [_LEQVEK(Acetyl (K))ELLR_],collision cross section,[8],385.81 ± 0.48 Å²
SPSDSGYSYETIGKTTK [_SPSDSGYSYETIGK(Trimethyl (K))TTK_],collision cross section,[3],455.09 ± 0.58 Å²
same,collision cross section,[4],517.28 ± 2.4 Å²
GRGTSQLAEGATAK [_GR(Citrullination (R))GTSQLAEGATAK_],collision cross section,[9],396.62 ± 1 Å²
TQDQISNIKYHEEFEK [_TQDQISNIK(Succinyl)YHEEFEK_],collision cross section,[10],549.89 ± 1.1 Å²
DAEAAEATAEGALKAEK [_DAEAAEATAEGALK(Methyl (K))AEK_],collision cross section,[11],456.59 ± 2.6 Å²
same,collision cross section,[12],536.13 ± 1.5 Å²
LLIVSTTPYSEKDTK [_LLIVSTTPYSEK(Trimethyl (K))DTK_],collision cross section,[3],468.15 ± 1.2 Å²
same,collision cross section,[4],501.69 ± 1.8 Å²
LQLEIDQKK [_LQLEIDQK(Dimethyl (K))K_],collision cross section,[1],364.14 ± 0.52 Å²
same,collision cross section,[2],427.16 ± 2.1 Å²
SSFAYKDQNENR [_SSFAYK(Acetyl (K))DQNENR_],collision cross section,[8],398.41 ± 1.4 Å²
same,collision cross section,[13],457.8 ± 0.27 Å²
ASNAAVKLAESK [_ASNAAVK(Malonyl)LAESK_],collision cross section,[14],371.16 ± 0.62 Å²
AQPQDSRGGSK [_AQPQDSR(Methyl (R))GGSK_],collision cross section,"charge state: 2, modification: Methyl (R)",351.96 ± 2.1 Å²
ISALQGKLSK [_ISALQGK(Acetyl (K))LSK_],collision cross section,[8],353.22 ± 0.93 Å²
same,collision cross section,[13],432.36 Å²
LDEKENLSAK [_LDEK(Butyryl)ENLSAK_],collision cross section,"charge state: 2, modification: Butyryl",370.93 ± 0.84 Å²
LEQVEKELLR [_LEQVEK(hydroxyisobutyryl)ELLR_],collision cross section,[15],394.74 ± 0.29 Å²
GFCFITYTDEEPVKK [_GFCFITYTDEEPVK(Succinyl)K_],collision cross section,[16],465.85 ± 1.1 Å²
LQAAYAGDKADDIQK [_LQAAYAGDK(hydroxyisobutyryl)ADDIQK_],collision cross section,[15],440.97 ± 0.91 Å²
DYSVTANSK [_DY(Nitro (Y))SVTANSK_],collision cross section,[17],331.98 ± 0.55 Å²
TQAYQDQKPGTSGLR [_TQAYQDQK(Succinyl)PGTSGLR_],collision cross section,[16],434.09 ± 1.1 Å²
same,collision cross section,[10],483.43 ± 3.9 Å²
SPDEAYAIAKK [_SPDEAYAIAK(Biotin)K_],collision cross section,[7],394.29 ± 1.1 Å²
VELCSFSGYK [_VELCSFSGY(Nitro (Y))K_],collision cross section,[17],364.52 ± 0.72 Å²
LGVATVAKGVCGACK [_LGVATVAK(Succinyl)GVCGACK_],collision cross section,[16],417.57 ± 0.55 Å²
RGPPGAK [_RGPP(Hydroxyproline)GAK_],collision cross section,[18],303.1 ± 0.0067 Å²
VETTVTSLKTK [_VETTVTSLK(Acetyl (K))TK_],collision cross section,[8],378.83 ± 0.45 Å²
same,collision cross section,[13],444.47 Å²
DYSAPVNFISAGLKK [_DYSAPVNFISAGLK(Gluratylation)K_],collision cross section,[5],441.44 ± 0.95 Å²
same,collision cross section,[19],535.69 ± 1.8 Å²
GRGVGSPEPGPTAPYLGR [_GR(Citrullination (R))GVGSPEPGPTAPYLGR_],collision cross section,[9],422.7 ± 0.55 Å²
same,collision cross section,"charge state: 3, modification: Citrullination (R)",509.44 ± 39 Å²
FVDSKVGEFSGANK [_FVDSK(Trimethyl (K))VGEFSGANK_],collision cross section,[3],432.92 Å²
GTVPDDAVEALADSLGKK [_GTVPDDAVEALADSLGK(Succinyl)K_],collision cross section,[16],459.53 ± 1.1 Å²
same,collision cross section,[10],536.91 ± 2.2 Å²
SNEEGSEEKGPEVR [_SNEEGSEEK(Acetyl (K))GPEVR_],collision cross section,[8],400.7 ± 1 Å²
SLEEEGAAHSGKR [_SLEEEGAAHSGK(Dimethyl (K))R_],collision cross section,[1],412.8 ± 3 Å²
same,collision cross section,[2],453.89 ± 1.2 Å²
IGNSYFKEEK [_IGNSYFK(Dimethyl (K))EEK_],collision cross section,[1],384.15 ± 0.26 Å²
same,collision cross section,[2],447.26 ± 3 Å²
GADFLVTEVENGGSLGSKK [_GADFLVTEVENGGSLGSK(hydroxyisobutyryl)K_],collision cross section,[15],478.5 ± 1.3 Å²
same,collision cross section,[20],553.89 Å²
TTGFYSGFSEVAEKR [_TTGFYSGFSEVAEK(Malonyl)R_],collision cross section,[14],440.22 ± 1.2 Å²
INNFSADIKDSK [_INNFSADIK(Methyl (K))DSK_],collision cross section,[11],401.35 ± 2.2 Å²
same,collision cross section,[12],451.47 ± 4.8 Å²
AYGELPEHAK [_AY(Phospho (Y))GELPEHAK_],collision cross section,"charge state: 2, modification: Phospho (Y)",362.96 ± 0.74 Å²
same,collision cross section,"charge state: 3, modification: Phospho (Y)",450.05 Å²
PGLQGPR [_P(Hydroxyproline)GLQGPR_],collision cross section,[18],288.12 ± 3.8 Å²
FSAYIKNSNPALNDNLEK [_FSAYIK(Formyl)NSNPALNDNLEK_],collision cross section,"charge state: 2, modification: Formyl",479.47 ± 1.3 Å²
same,collision cross section,"charge state: 3, modification: Formyl",528.92 ± 9.9 Å²
SEGFDTYR [_SEGFDTY(Nitro (Y))R_],collision cross section,[17],336.07 ± 0.95 Å²
VPTTEKPTVTVNFR [_VPTTEK(Gluratylation)PTVTVNFR_],collision cross section,[5],428.25 ± 0.47 Å²
same,collision cross section,[19],516.1 ± 2.5 Å²
DESFLGKLGGTLAR [_DESFLGK(hydroxyisobutyryl)LGGTLAR_],collision cross section,[15],419.07 ± 0.83 Å²
same,collision cross section,[20],498.29 ± 2.3 Å²
TQAYQDQKPGTSGLR [_TQAYQDQK(Acetyl (K))PGTSGLR_],collision cross section,[8],429.11 ± 1.6 Å²
same,collision cross section,[13],480.53 ± 6.7 Å²
DAIHFYNKSLAEHR [_DAIHFYNK(Trimethyl (K))SLAEHR_],collision cross section,[4],498.17 ± 1.1 Å²
DAIHFYNKSLAEHR [_DAIHFYNK(Malonyl)SLAEHR_],collision cross section,[21],505.96 ± 0.89 Å²
LQEKVESAQSEQK [_LQEK(Methyl (K))VESAQSEQK_],collision cross section,[11],410.87 ± 2 Å²
same,collision cross section,[12],480.74 ± 20 Å²
PSVSTKLISK [_PSVSTK(hydroxyisobutyryl)LISK_],collision cross section,[15],359.8 ± 1.9 Å²
ITGKNQVTATK [_ITGK(Dimethyl (K))NQVTATK_],collision cross section,[1],369.07 ± 1.1 Å²
same,collision cross section,[2],427.9 Å²
LYDIDVAK [_LY(Nitro (Y))DIDVAK_],collision cross section,[17],344.32 ± 0.56 Å²
GGGYGGDRGGYGGDR [_GGGYGGDR(Citrullination (R))GGYGGDR_],collision cross section,[9],373.62 ± 7.7 Å²
TEVLSPNSKVESK [_TEVLSPNSK(Biotin)VESK_],collision cross section,[7],425.18 ± 3.5 Å²
same,collision cross section,"charge state: 3, modification: Biotin",487.32 ± 1.7 Å²
LQEKVESAQSEQK [_LQEK(Malonyl)VESAQSEQK_],collision cross section,[14],413.7 ± 1.6 Å²
same,collision cross section,[21],504.23 ± 2.2 Å²
ITLSKHQNVQLPR [_ITLSK(Trimethyl (K))HQNVQLPR_],collision cross section,[4],492.22 ± 3.3 Å²
SLEEEGAAHSGKR [_SLEEEGAAHSGK(Malonyl)R_],collision cross section,[14],414.03 ± 1.2 Å²
DFSLTSSSQTPGATK [_DFS(HexNAc (ST))LTSSSQTPGATK_],collision cross section,[22],426.98 ± 0.62 Å²
same,collision cross section,"charge state: 3, modification: HexNAc (ST)",516.25 Å²
IVFSGNLFQHQEDSKK [_IVFSGNLFQHQEDSK(Gluratylation)K_],collision cross section,[5],499.16 ± 1.4 Å²
same,collision cross section,[19],531.31 ± 9.1 Å²
LAEEENKAK [_LAEEENK(Gluratylation)AK_],collision cross section,[5],353.09 ± 0.078 Å²
SSGPGGQNVNKVNSK [_SSGPGGQNVNK(Propionyl)VNSK_],collision cross section,[23],404.47 ± 0.49 Å²
TLQKQSVVYGGK [_TLQK(Propionyl)QSVVYGGK_],collision cross section,[23],393.92 ± 0.49 Å²
TLQKQSVVYGGK [_TLQK(Trimethyl (K))QSVVYGGK_],collision cross section,[3],405 ± 1.6 Å²
same,collision cross section,[4],449.39 ± 2.4 Å²
SAGSVESPSVSSTHR [_SAGSVESPSVS(HexNAc (ST))STHR_],collision cross section,[22],412.88 ± 0.14 Å²
KFGVLSDNFK [_K(Propionyl)FGVLSDNFK_],collision cross section,[23],374.07 ± 0.33 Å²
VNALKNLQVK [_VNALK(Crotonyl)NLQVK_],collision cross section,[6],376.57 ± 0.8 Å²
LLIVSTTPYSEKDTK [_LLIVSTTPYSEK(Crotonyl)DTK_],collision cross section,[6],458.47 ± 1.4 Å²
same,collision cross section,"charge state: 3, modification: Crotonyl",486.79 ± 2.7 Å²
AGQKLIDVNHYAK [_AGQK(Trimethyl (K))LIDVNHYAK_],collision cross section,[4],474.3 ± 1.8 Å²
FDDTNPEKEEAK [_FDDTNPEK(Gluratylation)EEAK_],collision cross section,[5],403.46 ± 1.1 Å²
same,collision cross section,[19],440.63 Å²
LLIVSTTPYSEKDTK [_LLIVSTTPYSEK(Succinyl)DTK_],collision cross section,[16],458.63 ± 1.1 Å²
same,collision cross section,[10],480.04 ± 2.5 Å²
